The target of this experiment is T1, human CEACAM1 expressed on the cell surface (CEACAM1-Jurkat T cells); HEK293 cells transfected with human … (human, UniProt P13688 35-526).
T1 construct: whole, on cells; also called CCM1
T1 sequence (looked up): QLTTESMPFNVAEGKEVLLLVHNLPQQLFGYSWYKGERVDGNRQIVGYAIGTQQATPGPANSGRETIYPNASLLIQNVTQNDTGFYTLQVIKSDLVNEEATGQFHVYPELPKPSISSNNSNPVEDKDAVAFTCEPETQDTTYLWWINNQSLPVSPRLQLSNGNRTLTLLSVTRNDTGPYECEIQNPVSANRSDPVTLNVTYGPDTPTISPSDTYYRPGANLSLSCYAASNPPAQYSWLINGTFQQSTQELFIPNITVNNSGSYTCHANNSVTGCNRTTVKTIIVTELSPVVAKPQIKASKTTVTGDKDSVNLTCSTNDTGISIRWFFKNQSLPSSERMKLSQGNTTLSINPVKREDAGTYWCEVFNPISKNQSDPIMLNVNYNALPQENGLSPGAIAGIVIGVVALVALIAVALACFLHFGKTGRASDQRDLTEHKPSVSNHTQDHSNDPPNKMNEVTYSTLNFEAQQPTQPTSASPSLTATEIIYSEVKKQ
Briefly: flow cytometry on CEACAM1-Jurkat T cells; reference: the other clones (MFI 8,000). The protocol: The CEACAM1-Jurkat T cells prepared above were treated with Fc block solution and incubated for 15 minutes. […] Herein, it is noted that the cell numbers were adjusted to 1×10⁵. The cells incubated with the antibodies were repeatedly subjected to the washing procedure of resuspending the cells in a FACS buffer and centrifuging the solution at 1,500 rpm.
PE-conjugated goat anti-human F(ab)₂; (Sigma; Cat. No. P8047)) was diluted in the FACS buffer at a volume ratio of 1:200, and then added to the cells at 100 μl/well. Cells were resuspended well and incubated at 4° C. for 30 minutes in a dark condition.
The cells incubated with the fixation buffer were repeatedly subjected to the washing procedure of resuspending the cells in a FACS buffer, centrifuging the solution at 1,500 rpm, and discarding the supernatant. The washed cells were resuspended in 200 μl of a FACS buffer, and the mean fluorescence intensities (MFIs) of the PE-labeled cells were monitored by a FACS LSR-Fortessa. All FACS analyses were conducted using the FlowJo software.

B1: 4R9_H4-n20 (antibody, human IgG4 S228P, lambda, V domains shown)
VH: EVQLLESGGGLVQPGGSLRLSCAASGFNFSNYAMSWVRQAPGKGLEWVSVISHGGGSIYYADSVKGRLTISRDNSKNTLYLQMNSLRAEDTAVYYCARDPTKGYAPTFDYWGQGTLVTVSS
VL: QSVLTQPPSASGTPGQRVTISCSGSSSNIGNNYVSWYQQLPGTAPKLLIYADSRRPSGVPDRFSGSKSGTSASLAISGLRSEDEADYYCGAWDLSLNGYVFGGGTKLTVLG
notes: also called C25-derived clone 4R9_H4-n20
Consider B1, for which the “fold MFI against the other clones” value came out at 1.5 times.

For the origin of these results see patent US20200109196A1 (MOGAM INSTITUTE FOR BIOMEDICAL RESEARCH, published 2020).
